From a protein production outcome set (Wang et al. 2014)

Assay: label from the status in PepcDB records

Row | Sequence | protein production
1 | MVKSYQRFEQAAAFGVIASNANCVWIPASSGNSNGSGPGQLITSALEDVNIWDIKTGDLVSKLSDGLPPGASDARGAKPAECTYLEAHKDTDLLAVGYADGVIKVWDLMSKTVLLNFNGHKAAITLLQFDGTGTRLISGSKDSNIIVWDLVGEVGLYKLRSHKDSITGFWCQGEDWLISTSKDGMIKLWDLKTHQCIETHIAHTGECWGLAVKDDLLITTGTDSQVKIWKLDIENDKMGGKLTEMGIFEKQSKQRGLKIEFITNSSDKTSFFYIQNADKTIETFRIRKEEEIARGLKKREKRLKEKGLTEEEIAKSIKESYSSFILHPFQTIRSLYKIKSASWTTVSSSKLELVLTTSSNTIEYYSIPYEKRDPTSPAPLKTHTIELQGQRTDVRSIDISDDNKLLATASNGSLKIWNIKTHKCIRTFECGYALTCKFLPGGLLVILGTRNGELQLFDLASSSLLDTIEDAHDAAIWSLDLTSDGKRLVTGSADKTVKFWDFKVENSLVPGTKNKFLPVLKLHHDTTLELTDDILCVRVSPDDRYLAISLLDNTVKVFFLDSMKFYLSLYGHKLPVLSIDISFDSKMIITSSADKNIKIWGLDFGDCHKSLFAHQDSIMNVKFLPQSHNFFSCSKDAVVKYWDGEKFECIQKLYAHQSEVWALAVATDGGFVVSSSHDHSIRIWEETEDQVFLEEEKEKELEEQYEDTLLTSLEEGNGDDAFKADASGEGVEDEASGVHKQTLESLKAGERLMEALDLGIAEIEGLEAYNRDMKLWQRKKLGEAPIKPQGNAVLIAVNKTPEQYIMDTLLRIRMSQLEDALMVMPFSYVLKFLKFIDTVMQNKTLLHSHLPLICKNLFFIIKFNHKELVSQKNEELKLQINRVKTELRSALKSTEDDLGFNVQGLKFVKQQWNLRHNYEFVDEYDQQEKESNSARKRVFGTVI | failed
2 | MPTALGYVSIGLACGIIGAPYVTPVEMGLMSLFVYAGSAQFAMLALIVVQAPVAAIAMTVFLINLRLFLLSLHASTYFRHTSLWYNIGMSSILTDETYGVLMGELAHTDKVNPMWMHGNNLNSYVAWFVGTVVGTALGGLLPNPEIFGLDFALVGMFIGIFASQFQIMQRRIPVRNLLIILAVVAVSFFLLLTVMSQSLAVLFATLLGCSMGVVLDGQ | failed
3 | MRFKISLTTRLSLIFSAVMLTVWWLSSFILISTLNDYFDNQDRDFLTGKLQLTEEFLKTETFRNKTDIKSLSEKINDAMVGHNGLFISIKNMENEKIVELYAKNSVVPAVLLNKSGDILDYMIQTEENNTVYRSISRRVAVTPEQGKSKHVIITVATDTGYHTLLMDKLSTWLFWFNIGLVFISVFLGWLTTRIGLKPLREMTSLASSMTVHSLDQRLNPDLAPPEISETMQEFNNMFDRLEGAFRKLSDFSSDIAHELRTPVSNLMMQTQFALAKERDVSHYREILFANLEELKRLSRMTSDMLFLARSEHGLLRLDKHDVDLAAELNELRELFEPLADETGKTITVEGEGVVAGDSDMLRRAFSNLLSNAIKYSPDNTCTAIHLERDSDCVNVMITNTMSGQVPANLERLFDRFYRADSSRFYNTEGAGLGLSITRSIIHAHGGELSAEQQGREIVFKVRLLMD | failed
4 | MAWYEGAFFYQIFPDRFFRAGPPGRPAPAGPFEPWEAPPTLRGFKGGTLWGVAEKLPYLLDLGVEAIYLNPVFASTANHRYHTVDYFQVDPILGGNEALRHLLEVAHAHGVRVILDGVFNHTGRGFFAFQHLMENGEQSPYRDWYHVKGFPLKAYTAHPNYEAWWGNPELPKLKVETPAVREYLLAVAEHWIRFGVDGWRLDVPNEIPDPTFWREFRQRVKGANPEAYIVGEIWEEADFWLQGDMFDAVMNYPLARAVLGFVGGEALDRDLAAQTGLGRIEPLQALAFSHRLEDLFGRYRPEVVRAQMNLLTSHDTPRLLSLMRGSVERARLALALLFLLPGNPTVYYGEEVGMAGGKDPENRGGMVWEEARWQKDLRETVKRLARLRKEHPALRTAPYLRIYAQDGHLAFARGPYLAVVNASPHPFRQDFPLHGVFPRGGRAVDLLSGEVCTPQGGRLCGPVLPPFSLALWREA | not failed
5 | MSQDRIAGIDVATNSTDISNIINEMIICIKGKQMPEVHEKAMDHLSKMIAANSRVIRDSNMLTERECVQKIMKLLSARYKKEEGKTVSDHFNELYRKLTLTKCDPHMRHSLMTHLLTITDNSDAEKAVASEDPRTQCDNLTQILVSRLNSISSSIASLNEMGVVNGNGVGAAAVTGAAAVTGAAAVTGAAAVTGAAASHSYDATQSSIGLRKQSLPNYLDATKMLPESRHDIVMSAIYSFTGVQGKYLKKDVVTGRFKLDQQNIKFLTTGQAGMLLRLSELGYYHDRVVKFSDVSTGFNAIGSMGQALISKLKEELANFHGQVAMLHDEMQRFRQASVNGIANKGKKDSGPDAGDEMTLFKLLAWYIKPLHRMQWLTKIADACQVKKGGDLASTVYDFLDNGNDMVNKLVEDFLTAICGPLVRMISKWILEGGISDMHREFFVKSIKDVGVDRLWHDKFRLRLPMLPKFVPMDMANKIFMTGKSINFLREICEEQGMMKERDELMKVMESSASQIFSYTPDTSWHAAVETCYQQTSKHVLDIMVGPHKLLDHLHGMRRYLLLGQGDFISILIENMKNELERPALDIYANDLTSMLDSALRCTNAQYDDPDILNHLDVIVQRPFNGDIGWNIISLQYIVHGPLAAMLESTMPTYKVLFKPLWRMKHMEFVLSMKIWKEQMGNAKALRTMKSEIGKASHRLNLFTSEIMHFIHQMQYYVLFEVIECNWVELQKKMQKATTLDEILEAHEKFLQTILVGCFVSNKASVEHSLEVVYENIIELEKWQSSFYKDCFKELNARKELSKIVEKSEKKGVYGLTNKMILQRDQEAKIFAEKMDIACRGLEVIATDYEKAVSTFLMSLNSSDDPNLQLFGTRLDFNEYYKKRDTNLSKPLTFEHMRMSNVFAVNSRFVICTPSTQE | failed
6 | SSAQFDHVTVIKKSNVYFGGLCISHTVQFEDGTKKTLGVILPTEQPLTFETHVPERMEIISGECRVKIADSTESELFRAGQSFYVPGNSLFKIETDEVLDYVCHLE | failed
7 | MVKIAASILACDLARLADEVKRVEEHVDMIHFDVMDGHFVPNISFGLPVLKALRKETKLPISVHLMITNPEDYIDRFIEEGADMVAIHYESTFHLHRLVHRVKDLGARAFVAINPHTPINLLSEIITDVDGVLVMSVNPGFSGQRFIARSLEKIRNLRKMVKELGLETEIMVDGGVNEENASILVKNGATILVMGYGIFRNDNYVELIKSIKQEREEFAD | not failed
8 | MSKKGFFEYKLSKEIVRALTGLGYDHPTEVQGEVIPVALQKKDLVVKSQTGSGKTASFGIPLCEMVEWEENKPQALVLTPTRELAVQVKEDITNIGRFKRIKAAAIYGKSPFARQKLELKQKTHIVVGTPGRVLDHIEKGTLSLERLKYLVIDEADEMLNMGFIDQVEAIIDELPTNRMTMLFSATLPEDVERLSRTYMNAPTHIEIKAAGITTDKIEHTLFEAIEDEKFSLLKDVTTIENPDSCIIFCRTQENVDHVYRQLKRANYPCDKIHGGMVQEDRFEVMDDFRKGKFRYLVATDVAARGIDIDNITHVINYDIPLEKESYVHRTGRTGRAGNSGKAITFITPYENRFLEEIEEYIGFEIPKAIGPSKEEVMKGKAAFEEKIHAKPIIKKDKNADINKGIMKLYFNGGKKKKIRAVDFVGTIAKIKGVTAEDIGIITIQDNVSYVEILNGKGPLVLKVMKTTTIKGKQLKVHEAIK | failed
9 | MAARGFRAGADHLRHQFCPPLVDPHRPWTARMKLLALSGSLRADSVNTALLRALAEAAPAGVEVCFFDGLRDLPLFNPDAEERENAAVTAWRAALRGADAVVISSPEYAHGIPGAFKNALDWVVGSAEFDGKPTLLLCASARPQHAPAQLAEVLRTMGARVQGPHLLDLPGNVAAAQSALRTPAQQAEARELLAALLP | failed
10 | MRLVEIGRFGAPYALKGGLRFRGEPVVLHLERVYVEGHGWRAIEDLYRVGEELVVHLAGVTDRTLAEALVGLRVYAEVADLPPLEEGRYYYFALIGLPVYVEGRQVGEVVDILDAGAQDVLIIRGVGERLRDRAERLVPLQAPYVRVEEGSIHVDPIPGLFD | not failed
11 | MEQDTQHVKPLQTKTDIHAVLASNGRIIYISANSKLHLGYLQGEMIGSFLKTFLHEEDQFLVESYFYNEHHLMPCTFRFIKKDHTIVWVEAAVEIVTTRAERTEREIILKMKVLEEETGH | failed
12 | MTAADPGTRIVRWALVAGAVAGLLAVMAGAFGAHGLRHVVSERGLEVFQTAVSYQMYHALALVAVSLMPALGLSGNLLTLACGFWLAGMMLFSGSLYLLVLTGIHWLGPVTPVGGVCFMVGWVLLIVAALKK | failed
13 | MPIPLEKQNKERRQKILTCSLDLFIEKGYYNTSIRDIIALSEVGTGTFYNYFVDKEDILKNLLEDFAKQIISSISEYYLVEKDLYERFIETKRLTMEVFAQNETLSEIYSRVAGSSAPIDQCLKQFEDRLLEFYSRNIEYGIKKGVFKNVPVSPIAHSILAIEKFSLYKWVVLKAITKEEMIEMVLSFHKTLAVGLLVVND | not failed
14 | METSMRYTSNSKSMKIHAKEKVPVNSKTHLQLHGELDTGTGAPSYFCAMIRHFFPEASTGLGVGLHYDKRQKLRCLVRGKKEFPVRADKRVTFNIKGRCDIDQDLNQKNPKGAAEFAWNIMDFKEDQDVRIKVGYEMFDKVPYMQIRENNWTLNANMKGKWNLRYDL | failed
15 | VRGFLIVGNKAFTQPFSLNDLPGAGRMDVLCRCTSQALFISHGIRRDVEVYLLLLGPPSPPKSILIKGDEVRRMSPDERNVAGHIKKALAVECGKSWKKVHSGVYVSRKGLEELIEELSEKYSIIYLKEDGVDISNAQLPPNPLFVIGDHEGLTEEQEKVVERYAALKLSLSPLSLLAEQCVVIAHHHLDRLQF | not failed
16 | KRIQYSVITILVLLIAVILIYMFSPLSKIAHVNINGNNHVSTSKINKVLGVKNDSRMYTFSKKNAINDLEEDPLIKSVEIHKQLPNTLNVDITENEIIALVKYKGKYLPLLENGKLLKGSNDVKINDAPVMDGFKGTKEDDMIKALSEMTPEVRRYIAEVTYAPSKNKQSRIELFTTDGLQVIGDISTISKKMKYYPQMSQSLSRDSSGKLKTRGYIDLSVGA | failed
17 | MARDNENILEEWCLIESNPCIFYDMLKRMGATEISVEDVYSLSYFDDYINNKEIINMNHILGVDTYLGENNKTLDKENNVVDVIELYKNNICMEDKYNKLLKHHSYIYGIIFLFNIGKHYKNNKYIEHNVPDNLFFAKQVIPNACATQAILSIVLNKDIELNDEIKNIKTFSLNFDSSMKGLTLSNCTFLRNIHNSYKPPIYLDKEDVHHDKKKSEDSFHFVSYISFQDKVYLLDGLQSGPVLINADEQNKPNPNNNNNNKDNDNDNNNNNNNNNNNNNNNNNNNNNNNNNNIGMNGKDWIEISREHIKKEIDEICNSQTNNDVRFNIIAVMKDKEYIIQEYINIHRIVKQRVNIKLINLGENIELSDEINEDEFPLLNDIPSIENLPNNVDTLYNIVNKSTLEINYLQSLLHEQKEIKKLWNIELTFKFFNFYPFIMSSLNLMAKHKLLKDAYQKEKLKNATKS | failed
18 | MTKRVTCSACDGFGAEGGETGMVSCNSCEGNGFILKNQRSIFGTVQSQMLCQSCGGQGKQALEHHHHHH | failed
19 | MDISILQAVLIGLWTAFCFSGMLLGLYTNRCIVLSLGVGVILGDIQTALAVGAISELAYMGFGVGAGGTVPPNPIGPGIFGTLMAITTAGTKGKITPEAALALSTPIAVGIQFLQTATYTAFAGAPETAKKALQAGNFRGFKIAANGTIWAFAGLGFGLGVLGALSTQTLTDLFALIPPVLLNGLTLAGKMLPAIGFAMILSVMAKKELIPYILLGYVLAVYFGLPVLTPTANGDGVLTSVATNSVLGVPTIGVAIIATIFALLDIFRKPAAPTKETKTEGDNQDDWI | failed
20 | MSSLFNVNAQFWASLIDSPLKILVHILDIAIVSWLIYKFIKALAGTKVMSLVQGVVLFVLFKFVAEFLGFTTIAFLMNQVITYGVIAGVVIFAPEIRSGLERFGRTPQSFIQRQQLSDDEKLVAAFVKAVAYMSPRKIGALVSIEETQTLREYIATGIPLDADISGELLINIFIPNTPLHDGAVIVEGNKIAVSCAYLPLSESSHISKEFGTRHRAAIGLSEASDAFTFVVSEETGAISVAYKGDFIHDLSLEAFEVLLREHFIKEEPKKKNWMKQFFGGRHHV | failed
